Results published in doi:10.1101/2024.06.19.598823 (bioRxiv, 2024).

Legend:
[1] = biological target: SARS-CoV-2 spike ectodomain, trimeric recombinant (SARS-CoV-2, ancestral (Wuhan) assumed, UniProt P0DTC2); assay: cell-based or functional assay
[2] = biological target: 6P stabilized SARS-CoV-2 S-ectodomain (prefusion-stabilized ancestral Wuhan spike ectodomain trimer) (SARS-CoV-2, ancestral Wuhan, stabilised); assay: cryo-EM structure

B1: nanobody 7F (VHH)
VHH: EVQLVESGGGLVEAGGSLRLSCVASGLTFSDYTMAWFRQVPGQEREFVSHIGWGGSETYYADSVKGRFTISRDNAKNAMYLQMNELKPDDTAVYYCAADRGSSFYYVRESEYTFWGQGTQVTVSS
IC50 of neutralisation of VSV pseudotyped with SARS-CoV-2 spike on VeroE6 cells [1]: 33.4 nM | stoichiometry N [2]: 6 7F molecules per two spike trimers
